# From the supplement of paper PMC9170038
# System: K4 kissing-loop RNA reporter
# Experiment: apparent KD of K4 kissing-loop reporter; higher = weaker reporter binding
# Conditions: Eterna round: R107
# Protocol: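 RNA-MaP round R107: designed RNA switches with theophylline, tryptophan, arginine or FMN aptamers are transcribed on-chip within common flanks. They are titrated with a labelled K4 kissing-loop RNA reporter in RNA-MaP buffer (100 mM Tris pH 7.5, 80 mM KCl, 4 mM MgCl2), without ligand or with the indicated ligand. Median apparent KD per design.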
# [1] = input ligand: theophylline 20 uM
# [2] = input ligand: tryptophan 2.4 mM
# 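Note: bound reporter read as fluorescence of individual clusters on recovered sequencing chips by microscopy, with normalized cluster intensities fitted with a binding model.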
Sequence,apparent KD of K4 kissing-loop reporter (input ligand: FMN 200 uM),apparent KD of K4 kissing-loop reporter (input ligand: arginine 13.2 mM),apparent KD of K4 kissing-loop reporter (input ligand: none),apparent KD of K4 kissing-loop reporter [1],apparent KD of K4 kissing-loop reporter [2]
UGAUACCAGACUGAUACCAGCCACAGAGUCAAAGACUCUGAAAAGGAAACCAGUGAUGUUGGCCCUUGGCAGCAGUCUGGUAUCU [TheoBX 15 #SwitchBubble #StaticStem],191 nM,176 nM,171 nM,152 nM,164 nM
UGAUACCAGACUGAUACCAGCCAGUGAUGUUGGCUAAGCCGAAGAGGUGUCAUAGACACCGGCCCUUGGCAGCAGUCUGGUAUCU [#07 K4 Theophylline B Exclusion],120 nM,110 nM,120 nM,108 nM,117 nM
UGAUAGGACAGAAGGAGCGGAAGUGAUGUUUCCAAAAGGUAAAGGUGUCAAAAGACACCCUUCCAGGUAGGUCGCUGUCCUAUCU [ArgBX 12 #Palindromic #SwitchBubble #StaticStem],119 nM,124 nM,113 nM,126 nM,103 nM
UGAUAGGACAGAAGGAGCGGUAGUGAUGUUACCAAAAGAAUAAGGUGUCAAAAGACACCCUACCAGGUAGGUCGCUGUCCUAUCU,170 nM,237 nM,189 nM,220 nM,179 nM
UGAUAGGACAGAAGGAGCGGUAGUGAUGUUGCCAAAAGGGUAAGGUGUCAAAAGACACCCUGCCAGGUAGGUCGCUGUCCUAUCU,99.7 nM,93.8 nM,98.5 nM,96.6 nM,81.9 nM
UGAUAGGACAGAAGGAGCGGUAGUGAUGUUGCCAAAAGGUUAAGGUGUCAAAAGACACCCUACCAGGUAGGUCGCUGUCCUAUCU,188 nM,207 nM,193 nM,193 nM,179 nM
UGCAUGUGAAACAUGUAGGUGCUAGGUGAAGGAGCGAUCGAAAGAUCAGGUAGGUCGCACCUUCCUGAGUGAUGUUCAGGUAAUA [KL-SSArg-A2],60.3 nM,31.7 nM,47.7 nM,55.2 nM,46 nM
UGCGGUAGUGAUGUUACCUCAUUAUACUAGCGAGGACCGGUACGGCCGCCACUCGACUUCCUCCACGCCUAGGCCUCUACGUUCA [theeternabot_sameState_KL_Trp_A_36],136 nM,122 nM,137 nM,127 nM,98.2 nM
UGGACGAUAUACGAUAAGUAUAUCUGGGAUACCAGUGACGAAAGUCACCCUUGGCAGCUCAACUGCCAGUGAUGUUGGUAGUCCA [#17 K4 Theophylline A Same State],192 nM,153 nM,135 nM,182 nM,126 nM
UGGACUAGUGUGAGUGAUGUUCACUUCGAUACCAGCAGAGCGAUCUGCCCUUGGCAGCGAGUUAACUGCCGAAAGGCAAGGUCCA [Theo B SS t9a],457 nM,478 nM,477 nM,457 nM,382 nM
UGGAUAUAGUGAUGUUAUAUAGAGAGUGAUACCAGUUUAGAGAAGAACCCUUGGCAGCAUAGAGAAGUAUCAUUAGAGAAGAAUG [ExTheophyl.Ap],220 nM,208 nM,233 nM,240 nM,180 nM
UGGCGGCAAGGGUUAUUGGAAAGUAUUCGACGAGGACCGGUACGGCCGCCACUCGAACACCAGUGAUGUUGGUCUGGCUUAAGCC [Exclusion Tryptophan A GF 21],276 nM,245 nM,285 nM,275 nM,279 nM
UGGGAUGGGCGAGGAUAUGGUGAUGUUUGGGUUGUUAGUGAUGUUGGUGAUGCUGGUGGUGUUUGUCCAGAAGGCGCGGUUUUUU [Bdazzled 3],154 nM,64.1 nM,119 nM,132 nM,109 nM
UGGGUGUAGUGAUGUUAUAUAGAGAGUGAUACCAGCGUAGAGAGAUGCCCUUGGCAGCAUAGAAGAGUAUCAUUGGAGGAGGAGG [ExTheophyl.Az],689 nM,743 nM,883 nM,730 nM,514 nM
UGGGUGUAGUGAUGUUAUAUAGAGAGUGAUACCAGUUUAGAGAAGAACCCUUGGCAGCAUAGAAGAGUAUCAUUGGAGGAGGAGG [ExTheophyl.Av],361 nM,413 nM,336 nM,268 nM,289 nM
UGGUAUAGUGAUGUUAUACCACUACCAGAUACCAGUGUAACAUUACGCCCUUGGCAGCUGAUCAGGGAACAUAUGGAGACAUAUG [Theo A Mod astro A#6],318 nM,261 nM,285 nM,267 nM,292 nM
UGUACCGAGUCAGGAUAUCAACGACUGACAAAGUCGGUCGAAUAUCCAGUGAUGUUGGAAAAUAACUGAGAAGGGACUUGGUACU [FmnBS 13 #SwitchBubble #StaticStem],194 nM,629 nM,1080 nM,710 nM,903 nM
UGUACCGAGUCAGGAUAUCAUAAUAAUGCAGUGAUGUUGCAAUAACGACUGACAAAGUCGGUCGAUUGAGAAGGGACUUGGUACU [FmnBS 6 #SwitchBubble #StaticStem],127 nM,118 nM,129 nM,110 nM,126 nM
